# Measurements from patent US20230136228A1 (LAMKAP BIO ALPHA, published 2023).
# T1: shed soluble CEACAM5 (sCEA) (human, UniProt P06731 35-685, limits assumed)
# T1 sequence (looked up): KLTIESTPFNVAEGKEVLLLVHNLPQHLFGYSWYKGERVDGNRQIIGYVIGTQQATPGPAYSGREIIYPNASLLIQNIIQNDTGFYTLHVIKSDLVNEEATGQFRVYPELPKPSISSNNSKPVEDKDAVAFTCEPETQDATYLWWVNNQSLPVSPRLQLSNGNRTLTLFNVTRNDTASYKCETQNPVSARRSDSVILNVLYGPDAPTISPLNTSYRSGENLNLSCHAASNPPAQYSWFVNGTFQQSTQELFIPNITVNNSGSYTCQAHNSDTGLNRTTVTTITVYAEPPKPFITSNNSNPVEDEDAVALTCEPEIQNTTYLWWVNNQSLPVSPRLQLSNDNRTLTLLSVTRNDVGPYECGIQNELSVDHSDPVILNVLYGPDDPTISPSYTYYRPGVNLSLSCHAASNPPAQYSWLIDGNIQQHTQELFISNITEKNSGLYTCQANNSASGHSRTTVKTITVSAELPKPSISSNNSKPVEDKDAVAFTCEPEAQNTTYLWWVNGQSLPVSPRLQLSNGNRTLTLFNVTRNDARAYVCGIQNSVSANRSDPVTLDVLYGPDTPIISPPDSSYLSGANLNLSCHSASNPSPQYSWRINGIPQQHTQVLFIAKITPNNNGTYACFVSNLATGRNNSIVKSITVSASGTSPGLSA
# T2: human CEACAM3 (human, UniProt P40198 35-252)
# T2 construct: whole, on cells
# T2 sequence (looked up): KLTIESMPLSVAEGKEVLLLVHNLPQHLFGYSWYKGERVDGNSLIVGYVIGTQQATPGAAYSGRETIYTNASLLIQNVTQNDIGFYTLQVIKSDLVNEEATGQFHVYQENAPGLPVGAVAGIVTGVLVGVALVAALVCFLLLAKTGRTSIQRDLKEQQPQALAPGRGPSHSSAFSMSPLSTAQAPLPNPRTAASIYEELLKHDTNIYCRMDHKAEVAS
# T3: human CEACAM4 (human, UniProt O75871 36-244)
# T3 construct: whole, on cells
# T3 sequence (looked up): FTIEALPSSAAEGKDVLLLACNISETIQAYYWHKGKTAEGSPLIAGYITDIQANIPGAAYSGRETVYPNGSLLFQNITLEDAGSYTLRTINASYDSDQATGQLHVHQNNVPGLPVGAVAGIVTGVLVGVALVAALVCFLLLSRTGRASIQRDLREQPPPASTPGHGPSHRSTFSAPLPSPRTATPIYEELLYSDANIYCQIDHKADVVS
# T4: human CEACAM6 (human, UniProt P40199 35-320)
# T4 construct: whole, on cells; also called CD66c
# T4 sequence (looked up): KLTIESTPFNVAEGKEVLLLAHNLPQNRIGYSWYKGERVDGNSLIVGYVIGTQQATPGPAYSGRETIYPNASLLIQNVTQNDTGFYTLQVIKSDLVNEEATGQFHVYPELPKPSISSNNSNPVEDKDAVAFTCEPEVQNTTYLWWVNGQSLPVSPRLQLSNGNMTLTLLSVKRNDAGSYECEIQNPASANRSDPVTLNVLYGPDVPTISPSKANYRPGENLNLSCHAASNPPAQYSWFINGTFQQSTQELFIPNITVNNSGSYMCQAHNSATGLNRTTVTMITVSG
# T5: human CEACAM8 (human, UniProt P31997 35-320)
# T5 construct: whole, on cells
# T5 sequence (looked up): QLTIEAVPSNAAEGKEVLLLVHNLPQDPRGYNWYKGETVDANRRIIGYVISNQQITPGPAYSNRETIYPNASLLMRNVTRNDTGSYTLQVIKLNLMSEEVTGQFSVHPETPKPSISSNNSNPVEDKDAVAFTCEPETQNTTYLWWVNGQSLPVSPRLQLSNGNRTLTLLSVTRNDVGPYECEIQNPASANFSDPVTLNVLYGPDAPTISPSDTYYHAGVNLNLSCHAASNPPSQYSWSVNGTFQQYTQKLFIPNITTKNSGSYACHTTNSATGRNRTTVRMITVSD
# Legend:
# [1] = target: T1, shed soluble CEACAM5 (sCEA); test: cell-based or functional assay
# human CEACAM3 = target: T2, human CEACAM3; test: flow cytometry, MFI on transfected PEAK cells divided by MFI on WT PEAK cells
# Procedure: (§1) Similarly, vectors encoding the full-length version of cyno CEACAM 5 and 6 are also used to express these proteins at the surface of PEAK and/or CHO cells. Non-transfected PEAK and/or CHO cells are used as negative control. Cells are harvested, counted, checked for viability and resuspended at 3×10⁶ cells/ml in FACS buffer (PBS 2% BSA, 0.1% NaN₃). 100 μl of the cell suspension are distributed in V-bottom 96-well plates (3×10⁵ cells/well). The supernatant is removed by centrifugation 3 minutes at 4° C., 1300 rpm and the cells incubated for 15 minutes at 4° C. with increasing concentrations of the antibody according to the invention. The antibodies carrying the anti-CEACAM5 arms to test are diluted in FACS buffer and the concentration range is 30 pM-500 nM. Cells are washed twice with cold FACS buffer and re-incubated for further 15 minutes at 4° C. with a compatible anti-human IgG secondary antibody. Cells are washed twice with cold FACS buffer and resuspended in 300 μl FACS buffer with 1:1500-diluted TOPRO-3 (Invitrogen). Fluorescence is measured using a FACSCalibur™ (BD Biosciences) or a Cytoflex Platform (Beckman Coulter). Dose-response binding curves are fitted using GraphPad Prism8 software. In the same manner, CEACAM1, CEACAM6 and other CEACAMs can be characterized.
# (§2) For the bispecific antibodies AB17L3-1/N, AB71L3-1/N, AB72L3-1/N, AB73L3-1/N the MFI measured for binding to CEACAM5 transfected cells was found between 29000 and 41000 (Table 2). In contrast MFI found by using PEAK cells transfected with CEACAM 1,3,4,6,8 were found below 1000 with the only exception of a strong signal for AB72L3-1/N on CEACAM8 transfected cells. When MFI values obtained on transfected cells expressing any given CEACAM are divided by the values obtained on WT PEAK cells, “factors to PEAK WT” can be calculated (Table 3). With the exception of AB72L3-1/N, the antibodies of the invention are all specific to CEACAM5, as the “factor to PEAK WT” values are all below 2.0.
# human CEACAM4 = target: T3, human CEACAM4; test: as above
# Procedure: as §1, §2
# human CEACAM6 = target: T4, human CEACAM6; test: as above
# Procedure: as §1, §2
# human CEACAM8 = target: T5, human CEACAM8; test: as above
# Procedure: as §1, §2
Binder,"EC50 fold change compared to no shed CEA condition, sCEA 0 µg/mL (reference) [1]","EC50 fold change compared to no shed CEA condition, sCEA 0.2 µg/mL [1]","EC50 fold change compared to no shed CEA condition, sCEA 1 µg/mL [1]","EC50 fold change compared to no shed CEA condition, sCEA 5 µg/mL [1]",Factor to PEAK WT (human CEACAM3),Factor to PEAK WT (human CEACAM4),Factor to PEAK WT (human CEACAM6),Factor to PEAK WT (human CEACAM8)
"AB17L3-1/N (bispecific antibody, human IgG1, kappa, lambda, L234A L235A, Kappa-lambda body, lead optimization wave 1) heavy: EVQLVESGGGLVQPGGSLKLSCAASGFTFNTYAMNWVRQAPGKGLEWVGRIRSKYNNYATYYADSVKDRFTISRDDSKNTAYLQMNSLKTEDTAVYYCVRHGNFGNSYVSWFAYWGQGTLVTVSSASTKGPSVFPLAPSSKSTSGGTAALGCLVKDYFPEPVTVSWNSGALTSGVHTFPAVLQSSGLYSLSSVVTVPSSSLGTQTYICNVNHKPSNTKVDKRVEPKSCDKTHTCPPCPAPEAAGGPSVFLFPPKPKDTLMISRTPEVTCVVVDVSHEDPEVKFNWYVDGVEVHNAKTKPREEQYNSTYRVVSVLTVLHQDWLNGKEYKCKVSNKALAAPIEKTISKAKGQPREPQVYTLPPSREEMTKNQVSLTCLVKGFYPSDIAVEWESNGQPENNYKTTPPVLDSDGSFFLYSKLTVDKSRWQQGNVFSCSVMHEALHNHYTQKSLSLSPG light 1: EIVLTQSPATLSLSPGERATLSCRASQSVNSNLNWYQQKPGQAPRLLIYHGSNRATGIPARFSGSGSGTDFTLTISSLEPEDFAVYYCQQFDYFKEHNTFGQGTKVEIKRTVAAPSVFIFPPSDEQLKSGTASVVCLLNNFYPREAKVQWKVDNALQSGNSQESVTEQDSKDSTYSLSSTLTLSKADYEKHKVYACEVTHQGLSSPVTKSFNRGEC light 2: QTVVTQEPSLTVSPGGTVTLTCRSSTGAVTTSNYANWFQQKPGQAPRGLIGGTNKRAPGTPARFSGSLLGGKAALTLSGAQPEDEAEYYCALWYKQRWVFGGGTKLTVLGQPKAAPSVTLFPPSSEELQANKATLVCLISDFYPGAVTVAWKADSSPVKAGVETTTPSKQSNNKYAASSYLSLTPEQWKSHRSYSCQVTHEGSTVEKTVAPTECS",1 fold,3.2 fold,5 fold,11 fold,1.2 fold,0.8 fold,1 fold,0.8 fold
"AB1L3-1/N (bispecific antibody, human IgG1, kappa, lambda, L234A L235A, Kappa-lambda body: common heavy chain (hIgG1 L234A+L235A+P329A), kappa CEA light chain AB1, lambda CD3 light chain L3-1 (1A4); also called parental KL bispecific antibody) heavy: EVQLVESGGGLVQPGGSLKLSCAASGFTFNTYAMNWVRQAPGKGLEWVGRIRSKYNNYATYYADSVKDRFTISRDDSKNTAYLQMNSLKTEDTAVYYCVRHGNFGNSYVSWFAYWGQGTLVTVSSASTKGPSVFPLAPSSKSTSGGTAALGCLVKDYFPEPVTVSWNSGALTSGVHTFPAVLQSSGLYSLSSVVTVPSSSLGTQTYICNVNHKPSNTKVDKRVEPKSCDKTHTCPPCPAPEAAGGPSVFLFPPKPKDTLMISRTPEVTCVVVDVSHEDPEVKFNWYVDGVEVHNAKTKPREEQYNSTYRVVSVLTVLHQDWLNGKEYKCKVSNKALAAPIEKTISKAKGQPREPQVYTLPPSREEMTKNQVSLTCLVKGFYPSDIAVEWESNGQPENNYKTTPPVLDSDGSFFLYSKLTVDKSRWQQGNVFSCSVMHEALHNHYTQKSLSLSPG light 1: EIVLTQSPATLSLSPGERATLSCRASQSVNSNLNWYQQKPGQAPRLLIYHGSNRATGIPARFSGSGSGTDFTLTISSLEPEDFAVYYCQQFDLRHEHNTFGQGTKVEIKRTVAAPSVFIFPPSDEQLKSGTASVVCLLNNFYPREAKVQWKVDNALQSGNSQESVTEQDSKDSTYSLSSTLTLSKADYEKHKVYACEVTHQGLSSPVTKSFNRGEC light 2: QTVVTQEPSLTVSPGGTVTLTCRSSTGAVTTSNYANWFQQKPGQAPRGLIGGTNKRAPGTPARFSGSLLGGKAALTLSGAQPEDEAEYYCALWYKQRWVFGGGTKLTVLGQPKAAPSVTLFPPSSEELQANKATLVCLISDFYPGAVTVAWKADSSPVKAGVETTTPSKQSNNKYAASSYLSLTPEQWKSHRSYSCQVTHEGSTVEKTVAPTECS",–,–,–,–,0.8 fold,0.7 fold,0.8 fold,0.7 fold
"AB71L3-1/N (bispecific antibody, human IgG1, kappa, lambda, L234A L235A, Kappa-lambda body, lead optimization wave 2) heavy: EVQLVESGGGLVQPGGSLKLSCAASGFTFNTYAMNWVRQAPGKGLEWVGRIRSKYNNYATYYADSVKDRFTISRDDSKNTAYLQMNSLKTEDTAVYYCVRHGNFGNSYVSWFAYWGQGTLVTVSSASTKGPSVFPLAPSSKSTSGGTAALGCLVKDYFPEPVTVSWNSGALTSGVHTFPAVLQSSGLYSLSSVVTVPSSSLGTQTYICNVNHKPSNTKVDKRVEPKSCDKTHTCPPCPAPEAAGGPSVFLFPPKPKDTLMISRTPEVTCVVVDVSHEDPEVKFNWYVDGVEVHNAKTKPREEQYNSTYRVVSVLTVLHQDWLNGKEYKCKVSNKALAAPIEKTISKAKGQPREPQVYTLPPSREEMTKNQVSLTCLVKGFYPSDIAVEWESNGQPENNYKTTPPVLDSDGSFFLYSKLTVDKSRWQQGNVFSCSVMHEALHNHYTQKSLSLSPG light 1: EIVLTQSPATLSLSPGERATLSCRASQSVNSNLNWYQQKPGQAPRLLIYHSSNRPHGIPARFSGSGSGTDFTLTISSLEPEDFAVYYCQQFDYFKEHNTFGQGTKVEIKRTVAAPSVFIFPPSDEQLKSGTASVVCLLNNFYPREAKVQWKVDNALQSGNSQESVTEQDSKDSTYSLSSTLTLSKADYEKHKVYACEVTHQGLSSPVTKSFNRGEC light 2: QTVVTQEPSLTVSPGGTVTLTCRSSTGAVTTSNYANWFQQKPGQAPRGLIGGTNKRAPGTPARFSGSLLGGKAALTLSGAQPEDEAEYYCALWYKQRWVFGGGTKLTVLGQPKAAPSVTLFPPSSEELQANKATLVCLISDFYPGAVTVAWKADSSPVKAGVETTTPSKQSNNKYAASSYLSLTPEQWKSHRSYSCQVTHEGSTVEKTVAPTECS",1 fold,0.6 fold,4.2 fold,5.5 fold,0.8 fold,0.7 fold,1 fold,0.9 fold
